The target of this test is polyclonal anti-QRFSR antibody 3RBF-SAB. Put plainly: competitive ELISA: free Opiorphin against coated Y-(PE)12-QRFSR for antibody 3RBF-SAB.

One may read the IC50 as the point on the concentration scale where inhibition reaches its midpoint. Low values mean greater potency in that assay, high ones weaker potency in that assay.

B1: Opiorphin QRFSR-peptide (peptide)
peptide: QRFSR
In the case of B1, the IC50 was 0.03 µg/mL.

(Values after US20120034604A1.)
